US20210180049A1 (CHUGAI SEIYAKU KABUSHIKI KAISHA, priority 2013, published 2021)

Key:
[1] = Tm measurement by DSC
Experimental: Measurement by DSC was carried out by a method known to those skilled in the art.
DSC measurement was carried out by a method known to those skilled in the art.

[2] = SPR (Biacore T200) binding of 6RNMSC1-2_F02 and variants to kynurenine; details: for Kd / ka for kynurenine / kd for kynurenine: Biacore T200, 15° C., 5% DMSO
Experimental: An appropriate amount of protein A (Invitrogen) was immobilized onto Sensor chip CM4 (GE Healthcare) by the amine coupling method. The antibody of interest was captured thereon, and the antigen kynurenine and derivatives thereof were allowed to interact. The running buffer used was 50 mmol/L Tris-HCl, 150 mmol/L NaCl, 0.02% (w/v) Tween 20, 5% DMSO, pH 7.6. All measurements were carried out at 15° C. The antigens were diluted with the running buffer.
Then, the running buffer was run at a flow rate of 30 μL/min for 60 seconds to observe the dissociation of antigens from the antibody. Kinetic parameters, the association rate constant ka (1/Ms) and the dissociation rate constant kd (l/s), were calculated based on the sensorgrams obtained by the measurements. The dissociation constant KD (M) was calculated from these constants. Each parameter was calculated using Biacore T200 Evaluation Software (GE Healthcare).
(§1) Meanwhile, the type of sensor chip immobilized with Protein A was changed to Sensor chip Series S CM3 (GE Healthcare) to measure some of the variants. When kynurenine dissociation was too fast to determine the dissociation rate constant, a dissociation constant KD (M) was calculated by analysis of equilibrium values based on the degree of binding response during the interaction with each antigen (association phase). In this case also, Biacore T200 Evaluation Software (GE Healthcare) was used to calculate the parameters.
as §1
(§2) When kynurenine dissociation was too fast to determine the dissociation rate constant, the dissociation constant KD (M) was calculated by analysis of equilibrium values based on the degree of binding response when it is interacted with each antigen (association phase). Also in this case, the Biacore T200 Evaluation Software (GE Healthcare) was used to calculate parameters. […] Each variant and its parental antibody F02h011/F021003 were compared in terms of the KD value for kynurenine.
as §2, with “analyzing” for “analysis of”, “sequence” for “antibody”

[3] = competitive phage ELISA with ATP; format: binding; details: ATP from equal amount up to 10000 times that of the antigen
Experimental: ATNLSA1-4_D12 and PF1 were each diluted with TBS and subjected to ELISA by the following procedure.
A StreptaWell 96 microtiter plate (Roche) was coated at room temperature for one hour with 100 μl of TBS containing biotin-labeled antigens (a mixture of 5′-adenosine-PEG-biotin and ATP-PEG-biotin). After the antigens were removed by washing each well of the plate with TBST, the wells were blocked with 250 μl of 2% skim milk/TBS for one hour or more. 2% skim milk/TBS was removed, and then the prepared, purified phages were added to each well. The plate was allowed to stand at room temperature for one hour to allow binding of the antibody-displaying phages to the antigens in each well. […] For the competition of the immobilized antigen with ATP, the plate was allowed to stand at room temperature for one hour. Then, after TBST wash, an HRP-conjugated anti-M13 antibody (Amersham Pharmacia Biotech) diluted with TBS was added to each well. The plate was incubated for one hour. Following TBST wash, the TMB single solution (ZYMED) was added to each well. The chromogenic reaction in the solution of each well was terminated by adding sulfuric acid. Then, the developed color was assessed by measuring absorbance at 450 nm.

[4] = SPR (Biacore T200) binding of humanized SMB0002 and its variants to adenosine; details: Biacore T200, 25° C.; read-out: KD of humanized SMB0002 toward adenosine
Experimental: (§3) Binding of humanized SMB0002 to adenosine and AMP was measured and analyzed by a method using Biacore T200 (GE Healthcare). Protein A (Invitrogen) immobilized in an appropriate amount onto a Sensor chip CM5 (GE Healthcare) by the amine coupling method was allowed to capture the antibody of interest, and the interaction with the antigen adenosine, AMP, ADP, or ATP was observed. The running buffer used was 50 mM Tris-HCl, 150 mM NaCl, 0.02% (w/v) Tween 20, pH 7.6, for adenosine and AMP, and 50 mM Tris-HCl, 150 mM NaCl, 0.02% (w/v) Tween 20, 2 mM MgCl2, pH 7.6, for ADP and ATP. All measurements were carried out at 25° C. The antigens were diluted with the running buffer.
(§4) Then, the running buffer was run at a flow rate of 30 μL/min for five minutes, and dissociation of the antigens from the antibody was observed. Next, 10 mM glycine-HCl, pH 1.5, was added at a flow rate of 30 μL/min for 30 seconds to regenerate the sensor chip. Kinetic parameters such as the association rate constant ka (1/Ms) and the dissociation rate constant kd (l/s) were calculated based on the sensorgrams obtained by the measurements. The dissociation constant KD (M) was calculated from these constants. Each parameter was calculated using Biacore T200 Evaluation Software (GE Healthcare).
(§5) As a result of the measurements, the affinity of each variant toward adenosine and AMP was calculated as KD value. […]

[5] = SPR (Biacore T200) binding of humanized SMB0002 to ATP; details: Biacore T200, 25° C., 2 mM MgCl2; read-out: KD of humanized SMB0002 toward ATP
Experimental: as §3, §4

[6] = SPR (Biacore T200) binding of humanized SMB0002 to ADP; details: Biacore T200, 25° C., 2 mM MgCl2; read-out: KD of humanized SMB0002 toward ADP
Experimental: as §3, §4

[7] = SPR (Biacore T200) binding of humanized SMB0002 and its variants to AMP; details: Biacore T200, 25° C.; read-out: KD of humanized SMB0002 toward AMP
Experimental: as §3, §4, §5

[8] = target: T1, human IL-6 receptor (hIL-6R) (Homo sapiens, UniProt P08887); assay: IgG ELISA for hIL-6R binding under small molecule conditions of Table 12; details: IgG 2.5 μg/mL
T1 sequence (P08887 20-357 limits assumed): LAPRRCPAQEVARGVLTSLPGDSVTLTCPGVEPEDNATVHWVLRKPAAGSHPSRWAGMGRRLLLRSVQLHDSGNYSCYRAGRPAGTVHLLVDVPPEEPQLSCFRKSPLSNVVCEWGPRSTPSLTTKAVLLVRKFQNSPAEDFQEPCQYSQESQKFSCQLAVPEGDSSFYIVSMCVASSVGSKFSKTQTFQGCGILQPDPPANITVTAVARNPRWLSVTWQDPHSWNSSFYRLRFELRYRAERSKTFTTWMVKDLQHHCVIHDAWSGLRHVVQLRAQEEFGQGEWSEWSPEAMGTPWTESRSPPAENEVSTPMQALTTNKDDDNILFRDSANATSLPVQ
Experimental: Three types of obtained antibodies 6RNMSC1-2_F02, 6RNMSC1-3_G02, and GC413 were subjected to ELISA under the nine conditions shown in Table 12. The antigen used was biotin-labeled hIL-6R.
First, a StreptaWell 96 microtiter plate (Roche) was coated with 100 μL of PBS containing biotin-labeled hIL-6R at room temperature for one hour or longer. […] 100 μL of each of the purified IgGs prepared at 2.5 μg/mL using Sample Buffer containing small molecules at the final concentrations shown in Table 12 were added to each well, and the plate was let still at room temperature for one hour to allow each IgG to bind to biotin-labeled hIL-6R present in each well. After washing with Wash Buffer containing small molecules at the final concentrations shown in Table 12, HRP-conjugated anti-human IgG antibody (BIOSOURCE) diluted with Sample Buffer containing the same small molecules was added to each well and the plate was incubated for one hour. After washing with Wash Buffer containing respective small molecules, the chromogenic reaction of TMB single solution (ZYMED) added in each well was terminated by adding sulfuric acid. Then, the color development was measured by absorbance at 450 nm.

[9] = target: T1, human IL-6 receptor (hIL-6R); assay: phage ELISA for hIL-6R binding in the presence/absence of small molecule cocktail (SC); details: absorbance at 450 nm
Experimental: From a single colony of E. coli obtained in (6-1), a phage-containing culture supernatant was collected according to a conventional method (Methods Mol. Biol. (2002) 178, 133-145). […] A StreptaWell 96 microtiter plate (Roche) was coated overnight with 100 μL of TBS containing biotin-labeled hIL-6R. […] After removing 2% skim milk/TBS, purified phages were added to each well of the plate, and the plate was left still at room temperature for one hour to allow antibody-presenting phages to bind to biotin-labeled hIL-6R present in each well in the presence/absence of SC. Each well was washed with TBST or SC/TBST, and HRP-conjugated anti-M13 antibody (Amersham Pharmacia Biotech) diluted with TBS or SC/TBS was added thereto, and the plate was incubated for one hour. After washing with TBST or SC/TBST, the chromogenic reaction of TMB single solution (ZYMED) added in each well was terminated by adding sulfuric acid. Then, the color development was measured by absorbance at 450 nm.

B1: F02h011/F021003: 6RNMSC1-2_F02 with framework restored to germline; variable regions SEQ ID NO: 95 and 96 (antibody, V domains shown)
VH: QVQLVQSGAEVKKPGSSVKVSCKASGGTFSSYAISWVRQAPGQGLEWMGGIIPIFGTANYAQKFQGRVTITADESTSTAYMELSSLRSEDTAVYYCARDAPVVARPRGAFDIWGQGTLVTVSS
VL: DIVMTQSPLSLPVTPGEPASISCRSSQSLVHSDGNTYLSWYLQKPGQSPQLLIYEISNRFSGVPDRFSGSGSGTDFTLKISRVEAEDVGVYYCMQATQFPRTFGQGTKVEIK
Q: Which results are given for B1?
A: Tm [1]: 85.2 °C; kynurenine binding (in words) ([2]; Biacore): retain kynurenine binding; Kd [2]: 110 µM; ka for kynurenine [2]: 3664 M⁻¹ s⁻¹; kd for kynurenine [2]: 0.40 L/s

B2: F02h011/F021098: F02h011/F021003 with Lch_Ser56Tyr; variable regions SEQ ID NO: 95 and 97 (antibody, V domains shown)
VH: QVQLVQSGAEVKKPGSSVKVSCKASGGTFSSYAISWVRQAPGQGLEWMGGIIPIFGTANYAQKFQGRVTITADESTSTAYMELSSLRSEDTAVYYCARDAPVVARPRGAFDIWGQGTLVTVSS
VL: DIVMTQSPLSLPVTPGEPASISCRSSQSLVHSDGNTYLSWYLQKPGQSPQLLIYEISNRFYGVPDRFSGSGSGTDFTLKISRVEAEDVGVYYCMQATQFPRTFGQGTKVEIK
Q: For B2, which Kd [2] is on record?
A: The Kd was 72 µM.

Q: And the ka for kynurenine [2]?
A: Its ka for kynurenine is 3686 M⁻¹ s⁻¹.

Q: What about the kd for kynurenine [2] of the same molecule?
A: Its kd for kynurenine is 0.26 L/s.

B3: PF1: hIL-6R-binding clone prepared as a negative control; heavy chain SEQ ID NO: 50, light chain SEQ ID NO: 51 (antibody, V domains shown)
VH: QVQLQESGPGLVKPSETLSLTCAVSGYSISDDHAWSWVRQPPGEGLEWIGYISYSGITNYNPSLKGRVTISRDTSKNQFSLKLSSVTAADTAAYYCARVLARITAMDYWGEGTLVTVSS
VL: DIQMTQSPSSLSASVGDSVTITCQASQDISSYLNWYQQKPGKAPELLIYYGSELHSGVPSRFSGSGSGTDFTFTISSLEAEDAATYYCGQGNRLPYTFGQGTKVEIE
Q: Which “binding to biotin-labeled antigen with ATP as competitor” value [3] does the source give for B3 here?
A: Its value is “not detected regardless of the ATP concentration”.

B4: humanized SMB0002: heavy chain variable region SEQ ID NO: 85; light chain variable region SEQ ID NO: 86 (antibody, V domains shown)
VH: QVQLVQSGAEVKKPGASVKVSCKVSGIDLTNYAMGWVRQPPGKGLEWIGIIGADSSTWYPSWVKGRFTISKDTSKNQVVLTMTNMDPVDTATYYCARGRFVGYTNAFDPWGQGTLVTVSS
VL: DIQLTQSPSSLSASVGDRVTITCQSSQSVWNNNYLSWYQQKPGQPPKLLIYDASTLASGVPSRFSGSGSGTDFTLTINSLEAEDAATYYCHGSYANSGWYDNAFGGGTEVVVK
Q: For B4, which Kd [4] is on record?
A: The Kd was 0.0075 µM.

Q: What about the Kd [5] of the same molecule?
A: The Kd was 140 µM.

Q: What about the Kd [6] of the same molecule?
A: Its Kd is 79 µM.

Q: What about the Kd [7] of the same molecule?
A: The Kd was 35 µM.

B5: 6RNMSC1-3_G02: antibody binding hIL-6R in the presence of ATP; heavy chain SEQ ID NO: 34, light chain SEQ ID NO: 35 (antibody, listed as Homo sapiens, V domains shown)
VH: EVQLVQSGGDLVKPGGSLRLSCAASGFTFSNYAMHWVRQAPGKGLEWVAVVSYDGSNKYYADSVKGRFTISRDNSKNTLYLQMNSLRAEDTAVYYCARLVPSSGYPGRFDPWGQGTLVTVSS
VL: NIQMTQSPSSLSASVGDRVTITCRASQSISSSLNWYQQIPGKAPKLLIYAASSLQSGVPSRFSGSGSGTDFTLTISSLQPEDFASYYCQQSYSAWTFGQGTKVEIK
Q: What does the source list for B5?
A: absorbance under condition 9 (no small molecule) compared to condition 8 (cocktail of all small molecules) ([8]; absorbance at 450 nm): significantly lower; small molecule in whose presence the antibody binds hIL-6R ([8]; conditions 1-9 of Table 12, absorbance at 450 nm): binds to the antigen hIL-6R in the presence of ATP; binding activity to the antigen hIL-6R in the presence of a small molecule mixture [9]: having binding activity
